# Measured values: US11504441B2, “Radiolabeled compounds targeting the prostate-specific membrane antigen” (PROVINCIAL HEALTH SERVICES AUTHORITY, priority 2019, dated 2022)
# Experiments:
# [1] = test system: PSMA-expressing LNCaP cancer xenografts; conditions: mouse, in vivo
# Protocol: (§1) LNCaP cell line was obtained from ATCC (LNCaP clone FGC, CRL-1740). […] Cells were cultured in PRM I 1640 medium supplemented with 10% FBS, penicillin (100 U/mL) and streptomycin (100 μg/mL) at 37° C. in a humidified incubator containing 5% CO2. Cells grown to 80-90% confluence were then washed with sterile phosphate-buffered saline (1× PBS pH 7.4) and collected by trypsinization. The collected cells concentration was counted with a Hausser Scientific (Horsham, Pa.) Hemacytometer.
# (§2) Imaging and biodistribution experiments were performed using NODSCID 1 L2RγKO male mice. Mice were anesthetized by inhalation with 2% isoflurane in oxygen, and implanted subcutaneously with 1×10^7 LNCaP cells behind left shoulder. Mice were imaged or used in biodistribution studies when the tumor grew up to reach 5-8 mm in diameter during 5-6 weeks.
# (§3) PET imaging experiments were conducted using Siemens Inveon micro PET/CT scanner. Each tumor bearing mouse was injected 6-8 MBq of Ga-68 labeled tracer through the tail vein under anesthesia (2% isoflurane in oxygen). The mice were allowed to recover and roam freely in their cage. After 50 min, the mice were sedated again with 2% isoflurane in oxygen inhalation and positioned in the scanner. A 10-min CT scan was conducted first for localization and attenuation correction after segmentation for reconstructing the PET images. Then, a 10-min static PET imaging was performed to determined uptake in tumor and other organs. The mice were kept warm by a heating pad during acquisition. For biodistribution studies, the mice were injected with the radiotracer as described above. The mice was anesthetized with 2% isoflurane inhalation, and euthanized by CO2 inhalation. Blood was withdrawn immediately from the heart, and the organs/tissues of interest were collected. The collected organs/tissues were weighed and counted using a Perkin Elmer (Waltham, Mass.) Wizard2 2480 gamma counter. The uptake in each organ/tissue was normalized to the injected dose using a standard curve, and expressed as the percentage of the injected dose per gram of tissue (% ID/g).
# (§4) LNCaP cell line was obtained from ATCC (LNCaP clone FGC, CRL-1740). […] Cells were cultured in PRM I 1640 medium supplemented with 10% FBS, penicillin (100 U/mL) and streptomycin (100 μg/mL) at 37° C. in a humidified incubator containing 5% CO2. Cells grown to 80-90% confluence were then washed with sterile phosphate-buffered saline (1× PBS pH 7.4), and collected by trypsinization. The collected cell concentration was counted with a Hausser Scientific (Horsham, Pa.) Hemacytometer.
# (§5) Imaging and biodistribution experiments were performed using NODSCID 1L2RγKO male mice. Mice were anesthetized by inhalation with 2% isoflurane in oxygen, and implanted subcutaneously with 1×10^7 LNCaP cells behind left shoulder. Mice were imaged or used in biodistribution studies when the tumor grew up to reach 5-8 mm in diameter during 5-6 weeks.
# (§6) PET imaging experiments were conducted using Siemens Inveon micro PET/CT scanner. Each tumor bearing mouse was injected 6-8 MBq of Ga-68 or F-18 labeled tracer through the tail vein under anesthesia (2% isoflurane in oxygen). The mice were allowed to recover and roam freely in their cage. After 50 min, the mice were sedated again with 2% isoflurane in oxygen inhalation and positioned in the scanner. A 10-min CT scan was conducted first for localization and attenuation correction after segmentation for reconstructing the PET images. Then, a 10-min static PET imaging was performed to determined uptake in tumor and other organs.
# (§7) For biodistribution studies, the mice were injected with the radiotracer as described above.
# in vivo = conditions: male, NODSCID 1L2RγKO, mouse, iv, total radioactivity
# Protocol: as §1, §2, §3, §4, §5, §6, §7
structure (smiles),measurement,setting,value
"O=C(O)CCCCC(NC(=O)N[C@@H](CCCCNC(=O)[C@H](Cc1c2ccccc2cc2ccccc12)NC(=O)[C@H]1CC[C@H](CNC(=O)CN2CCN(CC(=O)O)CCN(CC(=O)O)CCN(CC(=O)O)CC2)CC1)C(=O)O)C(=O)O (single isomer, unassigned) [68Ga-HTK03189B, metal not drawn]",Adrenal glands uptake,"[1]; male, NODSCID 1L2RγKO, iv, 1 h",0.37 ± 0.15 % ID/g
same,Blood uptake,"[1]; male, NODSCID 1L2RγKO, iv, 1 h",1.06 ± 0.25 % ID/g
same,Bone uptake,"[1]; male, NODSCID 1L2RγKO, iv, 1 h",0.10 ± 0.02 % ID/g
same,Brain uptake,"[1]; male, NODSCID 1L2RγKO, iv, 1 h",0.03 ± 0.00 % ID/g
same,Fat uptake,"[1]; male, NODSCID 1L2RγKO, iv, 1 h",0.17 ± 0.10 % ID/g
same,Heart uptake,"[1]; male, NODSCID 1L2RγKO, iv, 1 h",0.30 ± 0.06 % ID/g
same,Intestine uptake,"[1]; male, NODSCID 1L2RγKO, iv, 1 h",0.28 ± 0.07 % ID/g
same,Kidneys uptake,"[1]; male, NODSCID 1L2RγKO, iv, 1 h",2.13 ± 0.45 % ID/g
same,Lacrimal uptake,"[1]; male, NODSCID 1L2RγKO, iv, 1 h",0.13 ± 0.04 % ID/g
same,Liver uptake,"[1]; male, NODSCID 1L2RγKO, iv, 1 h",0.39 ± 0.08 % ID/g
same,Lungs uptake,"[1]; male, NODSCID 1L2RγKO, iv, 1 h",0.82 ± 0.22 % ID/g
same,Muscle uptake,"[1]; male, NODSCID 1L2RγKO, iv, 1 h",0.12 ± 0.03 % ID/g
same,Pancreas uptake,"[1]; male, NODSCID 1L2RγKO, iv, 1 h",0.18 ± 0.05 % ID/g
same,Salivary uptake,"[1]; male, NODSCID 1L2RγKO, iv, 1 h",0.22 ± 0.04 % ID/g
same,Seminal uptake,"[1]; male, NODSCID 1L2RγKO, iv, 1 h",2.62 ± 4.74 % ID/g
same,Spleen uptake,"[1]; male, NODSCID 1L2RγKO, iv, 1 h",0.20 ± 0.05 % ID/g
same,Stomach uptake,"[1]; male, NODSCID 1L2RγKO, iv, 1 h",0.11 ± 0.03 % ID/g
same,Tail uptake,"[1]; male, NODSCID 1L2RγKO, iv, 1 h",0.90 ± 0.29 % ID/g
same,Testes uptake,"[1]; male, NODSCID 1L2RγKO, iv, 1 h",0.26 ± 0.05 % ID/g
same,Thyroid uptake,"[1]; male, NODSCID 1L2RγKO, iv, 1 h",0.29 ± 0.08 % ID/g
same,Tumor uptake,"[1]; male, NODSCID 1L2RγKO, iv, 1 h",0.67 ± 0.15 % ID/g
same,Urine uptake,"[1]; male, NODSCID 1L2RγKO, iv, 1 h",441 ± 138 % ID/g
same,Blood: Salivary ratio,[1],4.86 ± 1.16
same,Tumor: Blood ratio,[1],0.65 ± 0.15
same,Tumor: Kidney ratio,[1],0.32 ± 0.05
same,Tumor: Muscle ratio,[1],5.68 ± 1.12
same,Tumor: Salivary ratio,[1],3.08 ± 0.53
"O=C(O)CC[C@H](NC(=O)N[C@@H](CCCCNC(=O)[C@H](Cc1c2ccccc2cc2ccccc12)NC(=O)[C@H]1CC[C@H](CNC(=O)CN2CCN(CC(=O)O)CCN(CC(=O)O)CCN(CC(=O)O)CC2)CC1)C(=O)O)C(=O)O [68Ga-HTK03041, metal not drawn]",tissue uptake at 1 h,in vivo; Adrenal glands uptake,8.9 ± 2.56 %ID/g
same,tissue uptake at 1 h,in vivo; Blood uptake,1.43 ± 0.3 %ID/g
same,tissue uptake at 1 h,in vivo; Bone uptake,1.29 ± 0.45 %ID/g
same,tissue uptake at 1 h,in vivo; Brain uptake,0.1 ± 0.05 %ID/g
same,tissue uptake at 1 h,in vivo; Fat uptake,2.06 ± 0.59 %ID/g
same,tissue uptake at 1 h,in vivo; Heart uptake,1.82 ± 0.21 %ID/g
same,tissue uptake at 1 h,in vivo; Intestine uptake,1.14 ± 0.18 %ID/g
same,tissue uptake at 1 h,in vivo; Kidneys uptake,170 ± 26.4 %ID/g
same,tissue uptake at 1 h,in vivo; Lacrimal uptake,2.44 ± 1.79 %ID/g
same,tissue uptake at 1 h,in vivo; Liver uptake,1.38 ± 0.25 %ID/g
same,tissue uptake at 1 h,in vivo; Lungs uptake,4.32 ± 0.62 %ID/g
same,tissue uptake at 1 h,in vivo; Muscle uptake,0.75 ± 0.09 %ID/g
same,tissue uptake at 1 h,in vivo; Pancreas uptake,1.47 ± 0.16 %ID/g
same,tissue uptake at 1 h,in vivo; Salivary uptake,4.99 ± 0.88 %ID/g
same,tissue uptake at 1 h,in vivo; Seminal uptake,1.03 ± 0.27 %ID/g
same,tissue uptake at 1 h,in vivo; Spleen uptake,8.95 ± 3.22 %ID/g
same,tissue uptake at 1 h,in vivo; Stomach uptake,0.41 ± 0.11 %ID/g
same,tissue uptake at 1 h,in vivo; Tail uptake,1.36 ± 0.45 %ID/g
same,tissue uptake at 1 h,in vivo; Testes uptake,1.34 ± 0.22 %ID/g
same,tissue uptake at 1 h,in vivo; Thyroid uptake,2.48 ± 0.44 %ID/g
same,tissue uptake at 1 h,in vivo; Tumor uptake,23.1 ± 6.11 %ID/g
same,excreta dose per gram or mL at 1 h,in vivo; Urine uptake,173 ± 93 %ID/g
